The source of these data is paper doi:10.1101/2020.08.05.237479.

The assay concerns the target MBP-NES^MVM. As to the kind of experiment: MST.

Substance “yCRM1a C152S/C539T (from UniProt P30822 1-1055) (receptor)” had a fold weaker affinity than the C152/C539/C1022 triple mutant of 5 fold.
